Measured values published in article PMC5732184, “Arabidopsis Basic Helix-Loop-Helix 34 (bHLH34) Is Involved in Glucose Signaling through Binding to a GAGA Cis-Element”.

T1: His-bHLH34 (Arabidopsis thaliana) (UniProt Q9LTC7)
T1 sequence: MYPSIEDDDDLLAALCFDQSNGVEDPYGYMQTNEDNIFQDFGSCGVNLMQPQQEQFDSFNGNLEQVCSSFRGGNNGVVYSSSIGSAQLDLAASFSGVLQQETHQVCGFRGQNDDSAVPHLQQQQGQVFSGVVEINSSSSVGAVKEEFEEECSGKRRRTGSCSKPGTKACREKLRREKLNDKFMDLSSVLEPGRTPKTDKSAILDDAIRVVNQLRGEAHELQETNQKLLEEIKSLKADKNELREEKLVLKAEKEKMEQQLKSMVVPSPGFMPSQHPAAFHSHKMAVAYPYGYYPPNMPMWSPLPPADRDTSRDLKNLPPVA

T2: His-bHLH34 (Arabidopsis thaliana, UniProt Q9LTC7 1-320)
T2 sequence: T1 sequence

B1: DBE1 (dsDNA)
DNA 1: AGAAGAGACGGC
DNA 2: GCCGTCTCTTCT
B2: E-box (dsDNA)
DNA 1: CCGGCCACTTGTGCCA
DNA 2: TGGCACAAGTGGCCGG
B3: DBE6 (dsDNA)
DNA 1: GAGGGAGATTCA
DNA 2: TGAATCTCCCTC
B4: DBE4 (dsDNA)
DNA 1: CTTAGAGAGGAG
DNA 2: CTCCTCTCTAAG
B5: DBE5 (dsDNA)
DNA 1: AAATGAGATCAT
DNA 2: ATGATCTCATTT
B6: DBE1 m1 (dsDNA)
DNA 1: AGAATAGACGGC
DNA 2: GCCGTCTATTCT
B7: DBE1 m2 (dsDNA)
DNA 1: AGAAGTGACGGC
DNA 2: GCCGTCACTTCT
B8: DBE1 m4 (dsDNA)
DNA 1: AGAAGAGTCGGC
DNA 2: GCCGACTCTTCT
B9: DBE3 (dsDNA)
DNA 1: AAATGAGAGGAT
DNA 2: ATCCTCTCATTT
B10: DBE1 m3 (dsDNA)
DNA 1: AGAAGATACGGC
DNA 2: GCCGTATCTTCT
B11: DBE2 (dsDNA)
DNA 1: CCAGGAGAGGTT
DNA 2: AACCTCTCCTGG
B12: DBE1 unlabeled competitor (dsDNA)
DNA 1: AGAAGAGACGGC
DNA 2: GCCGTCTCTTCT

biological target: T1, His-bHLH34 (Arabidopsis thaliana); assay: EMSA; details: 10 mM Tris-HCl pH 7.5, 50 mM KCl, 1 mM EDTA, 1 mM DTT, 2.5% glycerol, 1 ug poly(dI-dC), 100 ng protein, 0.3 pmol DNA in 20 uL; 25 C 20 min; 5% native PAGE in …

| Molecule | binding |
| --- | --- |
| TATTCGCAACCTATTCACAATTCACAAACTTTCAAATAAATGCGCCAAACTAAGTCAGATCCTCAAGATCGGTGTATACAAATCAGAAATCGTTACACAACCTTAGAGAGGAGGGTAGAAATGAGATCATCAGGTCCAGT (double strand) [P3 fragment (-734 to -595)] | binds |
| AACCACGGACTCAGATCCATTCCTCGAGACGTTTGAATCTCCCTCTTCAATATTCAATCCCGTACAAGGTGTTACGGAGTAGGAGTAGAAGATTAGGACTCGTCGTCAGTTCTGTTTCAGCTCCCAACGTTGAGCTCCGT (double strand) [P4 fragment (-594 to -456)] | binds |
| GTGATGGAGGTGTGACGCTAAGCCCTGAGCAGCACAAGGAGGTGGCACAAGTGGCCGGAGAGCTTCAAAAGTACTGTGTCAAGGAGCCTGTCAAAAATCCTCTCATTTTTGGAGGTAAAAGTGTAAGAACCTAGCTGCCA (double strand) [P2 fragment (-874 to -735)] | binds |
| GAAGAAGAGACGGCCTATCACGCTTCTGTAGCCTCCACCAGGAGAGGTTGGTCTAGAACAGTACACCACTTCCCAATCTGCACCAAATCCCACAAGTTCACATATTGATCCAAGGAAGAAGCAA (double strand) [P1 fragment (-999 to -875)] | binds |

biological target: T2, His-bHLH34; assay: EMSA; 10 mM Tris-HCl pH 7.5, 50 mM KCl, 1 mM EDTA, 1 mM DTT, 2.5% glycerol, 1 ug poly(dI-dC), 100 ng protein, 0.3 pmol DNA in 20 uL; 25 C 20 min; 5% native PAGE in TBE at 4 C; details: protein: recombinant; tags: His tag (pET300/NT-DEST); chain copies: 2; label: 32P; blunt

| Molecule | binding result |
| --- | --- |
| B1 | binds |
| B2 | binds |
| B3 | binds |
| B4 | binds |
| B5 | binds |
| B6 | no binding |
| B7 | no binding |
| B8 | no binding |
| B9 | binds |
| B10 | no binding |
| B11 | binds |

biological target: T2, His-bHLH34; assay: competition; 10-100x excess against 32P-DBE1; 10 mM Tris-HCl pH 7.5, 50 mM KCl, 1 mM EDTA, 1 mM DTT, 2.5% glycerol, 1 ug poly(dI-dC), 100 ng protein, 0.3 pmol DNA in 20 uL; 25 C 20 min; 5% native PAGE in TBE at 4 C; details: protein: recombinant; tags: His tag (pET300/NT-DEST); chain copies: 2; blunt

| Molecule | binding result |
| --- | --- |
| B12 | binds |
